Laboratory results as given in patent publication US20240400693A1 (Chugai, published 2024).

Key:
Assay in all cases: cell-based or functional assay
[1] = molecular target: HLA-DQ2.5 on IHW09023 cells loaded with 33mer gliadin peptide (human; wheat)
[2] = molecular target: HLA-DQ2.5 on IHW09023 cells loaded with BC hordein peptide (human; barley)
[3] = molecular target: HLA-DQ2.5 on IHW09023 cells loaded with gamma 3 gliadin peptide (human; wheat)
[4] = molecular target: HLA-DQ2.5 on IHW09023 cells loaded with gamma 4d gliadin peptide (human; wheat)
[5] = molecular target: HLA-DQ2.5 on IHW09023 cells loaded with gamma 2 gliadin peptide (human; wheat)
[6] = molecular target: HLA-DQ2.5 on IHW09023 cells loaded with gamma 1 gliadin peptide (human; wheat)
[7] = molecular target: HLA-DQ2.5 on IHW09023 cells loaded with gamma 4a gliadin peptide (human; wheat)
[8] = molecular target: HLA-DQ2.5 on IHW09023 cells loaded with omega1/2 gliadin peptide (human; wheat)
[9] = molecular target: HLA-DQ2.2 on HBBB2.2 cells loaded with 33mer gliadin peptide (human; wheat)

Binder	IC50 (ng/mL), α1a gliadin TCR, 250 nM 33mer gliadin [1]	IC50 (ng/mL), α1b gliadin TCR, 250 nM 33mer gliadin [1]	IC50 (ng/mL), α2 gliadin TCR, 250 nM 33mer gliadin [1]	IC50 (ng/mL), BC hordein TCR, 250 nM BC hordein [2]	IC50 (ng/mL), γ3 gliadin TCR, 100 µM γ3 gliadin [3]	IC50 (ng/mL), γ4d gliadin TCR, 100 µM γ4d gliadin [4]	IC50 (ng/mL), γ2 gliadin TCR, 250 nM γ2 gliadin [5]	IC50 (ng/mL), γ1 gliadin TCR, 250 nM γ1 gliadin [6]	IC50 (ng/mL), γ4a gliadin TCR, 25 µM γ4a gliadin [7]	IC50 (ng/mL), ω1 gliadin TCR, 25 µM ω1/2 gliadin [8]	IC50 (ng/mL), ω2 gliadin TCR, 250 nM ω1/2 gliadin [8]	IC50 (ng/ml)_HLA-DQ2.2, α1a gliadin TCR, 25 µM 33mer gliadin [9]	IC50 (ng/ml)_HLA-DQ2.2, α2 gliadin TCR, 1 µM 33mer gliadin [9]
DQN0344H0976/L0591//DQN0385H1255/L0605-F6.v2 (bispecific antibody) heavy 1: QVQLVESGGGVVQPGGSLRLSCAASGFTFSSAYWMVWVRQAPGQGLEWMGAVYGGSDTTYYAKWTEGRFTISRDTSKNTLYLQMNSLRAEDTAVYYCAREPLNYYYYGELNLWGQGTLVTVSSASTKGPSVFPLAPSSKSTSGGTAALGCLVKDYFPEPVTVSWNSGALTSGVHTFPAVLKSSGLYSLSSVVTVPSSSLGTQTYICNVNHKPSNTKVDKRVEPKSCDKTHTCPPCPAPELRRGPSVFLFPPKPKDTLMISRTPEVTCVVVDVSHEDPEVKFNWYVDGVEVHNAKTKPREEQYNSTYRVVSVLTVLHQDWLNGKEYKCKVSNKALPAPIEKTISKAKGQPREPQVYTLPPSREEMTKNQVSLTCLVKGFYPSDIAVEWESNGQPENNYKTTPPVLDSDGSFFLYSKLTVDKSRWQEGNVFSCSVLHEALHAHYTREELSLSP light 1: DIQMTQSPSSLSASVGDRVTITCQATEEIYSGLAWYQQKPGKAPKLLIYYVSTLYEGIPARFSGSGSGTDFTLTISSLEPEDFAVYYCQTYEDVSAVTFGQGTKVEIKRTVAAPSVFIFPPSDEQLKSGTAEVVCLLNNFYPREAKVQWKVDNALQSGNSEESVTEQDSKDSTYSLSSTLTLSKADYEKHKVYACEVTHQGLSSPVTKSFNRGEC heavy 2: QVQLVESGGGVVQPGRSLRLSCAASGFTFSEWYFMSWVRQAPGKGLEWVASIDTGSGSIDYAGWVEERFTISRDNSKNTLYLQMNSLRAEDTAVYYCARDIGIDYNFWGPGTLVTVSSASTKGPSVFPLAPSSKSTSGGTAALGCLVEDYFPEPVTVSWNSGALTSGVHTFPAVLESSGLYSLSSVVTVPSSSLGTKTYICNVNHKPSNTKVDKRVEPKSCDKTHTCPPCPAPELRRGPSVFLFPPKPKDTLMISRTPEVTCVVVDVSHEDPEVKFNWYVDGVEVHNAKTKPREEQYNSTYRVVSVLTVLHQDWLNGKEYKCKVSNKALPAPIEKTISKAKGQPREPQVYTLPPSRKEMTKNQVSLTCLVKGFYPSDIAVEWESNGQPENNYKTTPPVLDSDGSFFLYSKLTVDKSRWQQGNVFSCSVLHEALHAHYTRKELSLSP light 2: DIQMTQSPSSLSASVGDRVTITCQTTQSISSYLNWYQQKPGQPPKLLIYYASTKAEGIPARFSGSGSGTDFTLTISSLEPEDFAVYYCHYGISKVSFGQGTKVEIKRTVAAPSVFIFPPSDEQLKSGTAKVVCLLNNFYPREAKVQWKVDNALQSGNSKESVTEQDSKDSTYSLSSTLTLSKADYEKHKVYACEVTHQGLSSPVTKSFNRGEC	0.46 ng/mL	1.33 ng/mL	0.29 ng/mL	9.52 ng/mL	1.55 ng/mL	8.69 ng/mL	252 ng/mL	1.62 ng/mL	636 ng/mL	1.62 ng/mL	0.18 ng/mL	1.72 ng/mL	9.48 ng/mL
DQN0344H1013/L0620//DQN0385H1270/L0681-F6.v2 (bispecific antibody) heavy 1: QVQLVESGGGVVQPGRSLRLSCAASGFTFSSAYWMVWVRQAPGQGLEWMGAVYGGSDTTYYAKWTEGRFTISRDTSKNTLYLQMNSLRAEDTAVYYCAREPLNYYYYGELNVWGQGTLVTVSSASTKGPSVFPLAPSSKSTSGGTAALGCLVKDYFPEPVTVSWNSGALTSGVHTFPAVLKSSGLYSLSSVVTVPSSSLGTQTYICNVNHKPSNTKVDKRVEPKSCDKTHTCPPCPAPELRRGPSVFLFPPKPKDTLMISRTPEVTCVVVDVSHEDPEVKFNWYVDGVEVHNAKTKPREEQYNSTYRVVSVLTVLHQDWLNGKEYKCKVSNKALPAPIEKTISKAKGQPREPQVYTLPPSREEMTKNQVSLTCLVKGFYPSDIAVEWESNGQPENNYKTTPPVLDSDGSFFLYSKLTVDKSRWQEGNVFSCSVLHEALHAHYTREELSLSP light 1: DIQMTQSPSSLSASVGDRVTITCQATENIYSGLAWYQQKPGKAPKLLIYYVSTLAYGIPARFSGSGSGTDFTLTISSLEPEDFAVYYCQTYEDVSAVTFGQGTKVEIKRTVAAPSVFIFPPSDEQLKSGTAEVVCLLNNFYPREAKVQWKVDNALQSGNSEESVTEQDSKDSTYSLSSTLTLSKADYEKHKVYACEVTHQGLSSPVTKSFNRGEC heavy 2: QVQLVESGGGVVQPGRSLRLSCAASGFTFSEWYFMSWVRQAPGKGLEWVASIDTGSGSIDYAEWVEGRFTISRDNSKNTLYLQMNSLRAEDTAVYYCARDIGIDYNFWGPGTLVTVSSASTKGPSVFPLAPSSKSTSGGTAALGCLVEDYFPEPVTVSWNSGALTSGVHTFPAVLESSGLYSLSSVVTVPSSSLGTKTYICNVNHKPSNTKVDKRVEPKSCDKTHTCPPCPAPELRRGPSVFLFPPKPKDTLMISRTPEVTCVVVDVSHEDPEVKFNWYVDGVEVHNAKTKPREEQYNSTYRVVSVLTVLHQDWLNGKEYKCKVSNKALPAPIEKTISKAKGQPREPQVYTLPPSRKEMTKNQVSLTCLVKGFYPSDIAVEWESNGQPENNYKTTPPVLDSDGSFFLYSKLTVDKSRWQQGNVFSCSVLHEALHAHYTRKELSLSP light 2: DIQMTQSPSSLSASVGDRVTITCQTTQSISSYLNWYQQKPGQPPKLLIYYASTKAEGIPARFSGSGLGTDFTLTISSLEPEDFAVYYCHYGISKVSFGQGTKVEIKRTVAAPSVFIFPPSDEQLKSGTAKVVCLLNNFYPREAKVQWKVDNALQSGNSKESVTEQDSKDSTYSLSSTLTLSKADYEKHKVYACEVTHQGLSSPVTKSFNRGEC	0.63 ng/mL	1.42 ng/mL	0.53 ng/mL	25.2 ng/mL	4.84 ng/mL	27.8 ng/mL	280 ng/mL	5.85 ng/mL	1980 ng/mL	3.19 ng/mL	0.49 ng/mL	1.62 ng/mL	4.6 ng/mL
DQN0344H1013/L0620//DQN0385H1521/L0605-F6.v2 (bispecific antibody) heavy 1: QVQLVESGGGVVQPGRSLRLSCAASGFTFSSAYWMVWVRQAPGQGLEWMGAVYGGSDTTYYAKWTEGRFTISRDTSKNTLYLQMNSLRAEDTAVYYCAREPLNYYYYGELNVWGQGTLVTVSSASTKGPSVFPLAPSSKSTSGGTAALGCLVKDYFPEPVTVSWNSGALTSGVHTFPAVLKSSGLYSLSSVVTVPSSSLGTQTYICNVNHKPSNTKVDKRVEPKSCDKTHTCPPCPAPELRRGPSVFLFPPKPKDTLMISRTPEVTCVVVDVSHEDPEVKFNWYVDGVEVHNAKTKPREEQYNSTYRVVSVLTVLHQDWLNGKEYKCKVSNKALPAPIEKTISKAKGQPREPQVYTLPPSREEMTKNQVSLTCLVKGFYPSDIAVEWESNGQPENNYKTTPPVLDSDGSFFLYSKLTVDKSRWQEGNVFSCSVLHEALHAHYTREELSLSP light 1: DIQMTQSPSSLSASVGDRVTITCQATENIYSGLAWYQQKPGKAPKLLIYYVSTLAYGIPARFSGSGSGTDFTLTISSLEPEDFAVYYCQTYEDVSAVTFGQGTKVEIKRTVAAPSVFIFPPSDEQLKSGTAEVVCLLNNFYPREAKVQWKVDNALQSGNSEESVTEQDSKDSTYSLSSTLTLSKADYEKHKVYACEVTHQGLSSPVTKSFNRGEC heavy 2: QVQLVESGGGVVQPGRSLRLSCAASGFTFESWYFMSWVRQAPGKGLEWVASIDTGSGSIDYAEWVEGRFTISRDNSKNTLYLQMNSLRAEDTAVYYCARDIGIDYNFWGPGTLVTVSSASTKGPSVFPLAPSSKSTSGGTAALGCLVEDYFPEPVTVSWNSGALTSGVHTFPAVLESSGLYSLSSVVTVPSSSLGTKTYICNVNHKPSNTKVDKRVEPKSCDKTHTCPPCPAPELRRGPSVFLFPPKPKDTLMISRTPEVTCVVVDVSHEDPEVKFNWYVDGVEVHNAKTKPREEQYNSTYRVVSVLTVLHQDWLNGKEYKCKVSNKALPAPIEKTISKAKGQPREPQVYTLPPSRKEMTKNQVSLTCLVKGFYPSDIAVEWESNGQPENNYKTTPPVLDSDGSFFLYSKLTVDKSRWQQGNVFSCSVLHEALHAHYTRKELSLSP light 2: DIQMTQSPSSLSASVGDRVTITCQTTQSISSYLNWYQQKPGQPPKLLIYYASTKAEGIPARFSGSGSGTDFTLTISSLEPEDFAVYYCHYGISKVSFGQGTKVEIKRTVAAPSVFIFPPSDEQLKSGTAKVVCLLNNFYPREAKVQWKVDNALQSGNSKESVTEQDSKDSTYSLSSTLTLSKADYEKHKVYACEVTHQGLSSPVTKSFNRGEC	0.6 ng/mL	1.81 ng/mL	0.33 ng/mL	11.4 ng/mL	1.21 ng/mL	9.23 ng/mL	785 ng/mL	1.9 ng/mL	1250 ng/mL	1.96 ng/mL	0.2 ng/mL	1.16 ng/mL	6.51 ng/mL
